Tests used:
[1] = molecular target: C-terminally truncated zebrafish ortholog of the TREK1 channel (drTREK1), residues 1-322, N95Q, N122Q (D. rerio (zebrafish)); assay: cryo-EM structure; single particle cryo-EM of purified TREK1 at 3 mg/ml in DDM micelles (150 mM KCl, 20 mM Tris pH 8.0), without lipid or with POPA or POPE mixed micelles
[2] = molecular target: C-terminally truncated zebrafish ortholog of the TREK1 channel (drTREK1), residues 1-322, N95Q, N122Q (D. rerio (zebrafish)); assay: native MS; TREK1 in 200 mM ammonium acetate pH 8, 0.25 mM DDM, without lipid or with 0.1 mg/ml POPA or 0.025 mg/ml POPE; static nanospray on a Q-Exactive EMR

## C-terminally truncated zebrafish ortholog of the TREK1 channel (drTREK1), residues 1-322, N95Q, N122Q (natural protein)
[1]
  stoichiometry N: 2
[2]
  stoichiometry N: 2

— paper PMC9968290
